Test results reported in the supplement of paper PMC10065799, “High-throughput profiling of sequence recognition by tyrosine kinases and SH2 domains using bacterial peptide display” (eLife, 2023).

Tests used:
Fyn = Fyn (UniProt P06241); test: phosphorylation enrichment, bacterial display (enrichment ratio); higher = better substrate or ligand; peptides without Tyr show the background
FGFR1 = FGFR1 (UniProt P11362); test: as above
Jak2 = Jak2 (UniProt O60674); test: as above
FGFR3 = FGFR3 (UniProt P22607); test: as above
Fer (mouse) = test: as above
c-Abl (mouse) = test: as above
Fes = Fes (UniProt P07332); test: as above
c-Src = test: as above
EPHB1 = EPHB1 (UniProt P54762); test: as above
AncSZ = test: as above
EPHB2 = EPHB2 (UniProt P29323); test: as above
MERTK = MERTK (UniProt Q12866); test: as above
Hck = Hck (UniProt P08631); test: as above
Grb2 SH2 = Grb2 SH2 (UniProt P62993); test: SH2 binding enrichment of the phosphorylated peptide, bacterial display (enrichment ratio); higher = better substrate or ligand; peptides without Tyr show the background
c-Src SH2 = test: as above
SHP2-C SH2 = test: as above
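For SH2 binding enrichment of the phosphorylated peptide, bacterial display in this document: peptide library displayed on the E. coli surface as eCPX fusions, selected cells deep-sequenced, score is each peptide's frequency after selection divided by its frequency in the input.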
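For phosphorylation enrichment, bacterial display in this document: 11-residue human phosphosite peptides and single-mutation variants displayed on the E. coli surface, counted by deep sequencing, each peptide's frequency after selection divided by its frequency in the unselected input library; frequency after pTyr selection over input frequency; kinase dosed for 20-30% of maximal phosphorylation in three min.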

Sequence of Hck (P08631 whole entry, looked up): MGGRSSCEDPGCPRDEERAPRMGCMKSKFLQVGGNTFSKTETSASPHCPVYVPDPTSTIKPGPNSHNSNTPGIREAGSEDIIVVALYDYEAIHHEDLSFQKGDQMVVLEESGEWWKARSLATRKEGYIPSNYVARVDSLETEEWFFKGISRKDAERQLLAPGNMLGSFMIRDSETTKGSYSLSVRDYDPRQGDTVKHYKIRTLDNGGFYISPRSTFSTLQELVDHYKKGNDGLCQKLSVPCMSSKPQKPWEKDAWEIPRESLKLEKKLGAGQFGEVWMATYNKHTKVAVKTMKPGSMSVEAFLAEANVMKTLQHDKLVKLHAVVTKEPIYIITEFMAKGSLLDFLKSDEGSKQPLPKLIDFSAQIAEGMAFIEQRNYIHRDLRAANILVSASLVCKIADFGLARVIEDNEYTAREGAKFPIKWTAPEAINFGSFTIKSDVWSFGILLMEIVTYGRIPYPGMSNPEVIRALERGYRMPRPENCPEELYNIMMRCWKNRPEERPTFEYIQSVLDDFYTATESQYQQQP
Sequence of FGFR3 (P22607 whole entry, looked up): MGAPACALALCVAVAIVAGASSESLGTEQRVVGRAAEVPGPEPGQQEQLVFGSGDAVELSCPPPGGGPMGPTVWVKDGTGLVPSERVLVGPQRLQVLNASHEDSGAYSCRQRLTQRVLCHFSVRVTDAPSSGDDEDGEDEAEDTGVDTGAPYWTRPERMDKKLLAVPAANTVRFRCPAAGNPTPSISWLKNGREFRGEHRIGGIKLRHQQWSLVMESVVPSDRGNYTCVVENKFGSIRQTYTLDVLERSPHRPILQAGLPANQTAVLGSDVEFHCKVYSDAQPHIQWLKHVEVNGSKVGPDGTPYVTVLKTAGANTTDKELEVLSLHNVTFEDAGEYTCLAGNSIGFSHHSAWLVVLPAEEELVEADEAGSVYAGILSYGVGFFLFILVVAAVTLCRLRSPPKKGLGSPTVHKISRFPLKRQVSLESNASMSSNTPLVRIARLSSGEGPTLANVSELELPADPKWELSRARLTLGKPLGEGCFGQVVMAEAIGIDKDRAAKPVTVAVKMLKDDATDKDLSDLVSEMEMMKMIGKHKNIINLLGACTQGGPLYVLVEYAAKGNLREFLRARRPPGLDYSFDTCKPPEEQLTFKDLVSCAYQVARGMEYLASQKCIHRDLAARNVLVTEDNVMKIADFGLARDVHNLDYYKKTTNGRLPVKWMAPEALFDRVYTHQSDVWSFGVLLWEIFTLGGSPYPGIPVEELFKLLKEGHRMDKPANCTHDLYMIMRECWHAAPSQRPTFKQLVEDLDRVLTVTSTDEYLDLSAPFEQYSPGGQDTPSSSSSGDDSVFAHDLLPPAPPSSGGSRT
Sequence of FGFR1 (P11362 whole entry, looked up): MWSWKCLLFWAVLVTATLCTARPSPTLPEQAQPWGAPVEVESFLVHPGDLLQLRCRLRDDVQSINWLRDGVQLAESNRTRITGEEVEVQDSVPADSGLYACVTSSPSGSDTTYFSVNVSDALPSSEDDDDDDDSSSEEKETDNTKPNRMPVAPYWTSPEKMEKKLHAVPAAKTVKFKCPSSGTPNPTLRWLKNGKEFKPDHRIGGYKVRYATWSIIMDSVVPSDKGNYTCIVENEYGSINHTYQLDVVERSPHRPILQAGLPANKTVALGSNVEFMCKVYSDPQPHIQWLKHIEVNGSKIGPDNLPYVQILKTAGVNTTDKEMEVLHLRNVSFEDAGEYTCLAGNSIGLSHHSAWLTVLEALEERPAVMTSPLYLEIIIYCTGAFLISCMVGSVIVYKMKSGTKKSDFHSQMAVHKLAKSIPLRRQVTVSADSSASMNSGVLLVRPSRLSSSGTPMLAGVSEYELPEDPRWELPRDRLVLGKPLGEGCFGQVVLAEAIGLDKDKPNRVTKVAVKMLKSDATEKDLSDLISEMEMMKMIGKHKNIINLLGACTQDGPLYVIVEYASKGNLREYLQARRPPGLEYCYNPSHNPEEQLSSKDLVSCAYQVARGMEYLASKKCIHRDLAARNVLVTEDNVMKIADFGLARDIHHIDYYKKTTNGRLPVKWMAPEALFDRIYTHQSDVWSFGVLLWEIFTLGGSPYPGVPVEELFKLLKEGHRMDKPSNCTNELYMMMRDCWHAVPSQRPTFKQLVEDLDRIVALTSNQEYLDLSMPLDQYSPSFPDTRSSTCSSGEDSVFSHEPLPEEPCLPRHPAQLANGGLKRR
Sequence of Fyn (P06241 whole entry, looked up): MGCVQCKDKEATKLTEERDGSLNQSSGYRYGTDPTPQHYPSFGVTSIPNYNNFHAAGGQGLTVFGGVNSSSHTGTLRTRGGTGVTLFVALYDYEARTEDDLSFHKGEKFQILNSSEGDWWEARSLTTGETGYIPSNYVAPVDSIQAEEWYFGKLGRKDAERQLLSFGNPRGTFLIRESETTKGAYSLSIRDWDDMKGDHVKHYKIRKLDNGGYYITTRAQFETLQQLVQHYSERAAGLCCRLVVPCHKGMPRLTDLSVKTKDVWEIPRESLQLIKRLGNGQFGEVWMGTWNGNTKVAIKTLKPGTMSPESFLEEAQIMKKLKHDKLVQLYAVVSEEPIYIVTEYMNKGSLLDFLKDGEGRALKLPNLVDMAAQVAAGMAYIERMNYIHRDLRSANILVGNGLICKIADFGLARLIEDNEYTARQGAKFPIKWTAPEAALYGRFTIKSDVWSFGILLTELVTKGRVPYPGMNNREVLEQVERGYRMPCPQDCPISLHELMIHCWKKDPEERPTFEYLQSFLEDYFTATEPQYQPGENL
Sequence of EPHB1 (P54762 whole entry, looked up): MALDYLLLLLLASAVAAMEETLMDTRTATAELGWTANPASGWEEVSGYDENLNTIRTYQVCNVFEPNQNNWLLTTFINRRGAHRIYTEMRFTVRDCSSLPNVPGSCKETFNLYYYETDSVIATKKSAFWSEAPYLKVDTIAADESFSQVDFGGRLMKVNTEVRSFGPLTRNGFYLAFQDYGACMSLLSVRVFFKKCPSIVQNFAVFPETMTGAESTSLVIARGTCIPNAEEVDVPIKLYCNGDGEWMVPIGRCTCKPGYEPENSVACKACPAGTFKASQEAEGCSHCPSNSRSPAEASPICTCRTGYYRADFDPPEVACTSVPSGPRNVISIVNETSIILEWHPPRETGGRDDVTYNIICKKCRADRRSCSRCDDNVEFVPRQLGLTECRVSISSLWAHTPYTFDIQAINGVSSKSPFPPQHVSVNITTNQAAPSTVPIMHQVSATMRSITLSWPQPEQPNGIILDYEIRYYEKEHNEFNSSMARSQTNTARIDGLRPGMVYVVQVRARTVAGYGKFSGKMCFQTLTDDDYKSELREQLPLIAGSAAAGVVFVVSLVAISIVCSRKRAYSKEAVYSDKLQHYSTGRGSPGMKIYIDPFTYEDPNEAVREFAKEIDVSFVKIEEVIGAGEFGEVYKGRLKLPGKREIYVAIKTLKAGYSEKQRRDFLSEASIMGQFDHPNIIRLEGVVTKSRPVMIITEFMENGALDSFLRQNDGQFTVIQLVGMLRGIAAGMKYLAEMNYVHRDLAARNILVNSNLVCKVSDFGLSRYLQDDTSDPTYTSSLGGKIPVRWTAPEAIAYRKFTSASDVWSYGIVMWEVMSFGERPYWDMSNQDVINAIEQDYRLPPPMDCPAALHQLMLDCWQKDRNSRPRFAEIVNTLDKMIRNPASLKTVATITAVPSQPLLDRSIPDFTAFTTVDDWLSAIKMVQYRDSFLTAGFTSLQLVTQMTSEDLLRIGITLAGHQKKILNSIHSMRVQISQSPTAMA
Sequence of Jak2 (O60674 whole entry, looked up): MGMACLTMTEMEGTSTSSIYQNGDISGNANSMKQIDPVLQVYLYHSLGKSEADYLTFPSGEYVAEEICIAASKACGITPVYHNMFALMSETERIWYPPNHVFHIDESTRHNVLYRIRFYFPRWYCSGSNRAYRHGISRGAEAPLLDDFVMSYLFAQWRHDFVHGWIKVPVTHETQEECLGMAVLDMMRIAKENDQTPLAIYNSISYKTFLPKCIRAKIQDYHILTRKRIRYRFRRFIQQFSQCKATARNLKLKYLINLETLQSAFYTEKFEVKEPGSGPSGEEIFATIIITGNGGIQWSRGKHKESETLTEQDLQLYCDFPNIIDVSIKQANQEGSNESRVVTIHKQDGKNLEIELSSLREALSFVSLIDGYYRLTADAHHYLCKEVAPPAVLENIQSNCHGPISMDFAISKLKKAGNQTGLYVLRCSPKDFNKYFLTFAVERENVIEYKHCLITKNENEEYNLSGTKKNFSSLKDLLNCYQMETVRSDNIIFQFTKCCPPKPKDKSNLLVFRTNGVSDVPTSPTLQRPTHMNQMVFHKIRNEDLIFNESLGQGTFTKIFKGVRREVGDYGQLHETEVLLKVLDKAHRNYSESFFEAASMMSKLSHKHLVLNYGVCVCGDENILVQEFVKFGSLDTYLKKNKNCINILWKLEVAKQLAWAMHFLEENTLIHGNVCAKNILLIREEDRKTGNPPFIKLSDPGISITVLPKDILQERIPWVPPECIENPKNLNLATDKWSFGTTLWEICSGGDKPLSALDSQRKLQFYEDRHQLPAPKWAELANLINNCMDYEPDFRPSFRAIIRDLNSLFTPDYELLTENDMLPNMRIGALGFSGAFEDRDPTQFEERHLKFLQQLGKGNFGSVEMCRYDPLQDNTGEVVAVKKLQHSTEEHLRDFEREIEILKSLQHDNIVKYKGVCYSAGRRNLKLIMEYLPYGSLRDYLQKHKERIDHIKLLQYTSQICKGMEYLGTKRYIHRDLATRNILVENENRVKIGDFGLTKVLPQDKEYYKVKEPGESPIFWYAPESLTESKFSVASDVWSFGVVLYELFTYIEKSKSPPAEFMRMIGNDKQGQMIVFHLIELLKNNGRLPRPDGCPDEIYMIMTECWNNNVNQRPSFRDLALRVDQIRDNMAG
Sequence of Grb2 SH2 (P62993 whole entry, looked up): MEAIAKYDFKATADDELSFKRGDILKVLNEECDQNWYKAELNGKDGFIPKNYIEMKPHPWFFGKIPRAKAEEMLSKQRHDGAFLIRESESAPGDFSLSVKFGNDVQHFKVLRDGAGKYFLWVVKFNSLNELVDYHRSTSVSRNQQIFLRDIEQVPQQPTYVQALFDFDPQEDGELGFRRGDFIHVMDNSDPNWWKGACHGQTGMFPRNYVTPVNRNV

Sequence	phosphorylation enrichment (Fyn)	phosphorylation enrichment (FGFR1)	phosphorylation enrichment (Jak2)	phosphorylation enrichment (FGFR3)	phosphorylation enrichment (Fer (mouse))	phosphorylation enrichment (c-Abl (mouse))	phosphorylation enrichment (Fes)	phosphorylation enrichment (c-Src)	phosphorylation enrichment (EPHB1)	phosphorylation enrichment (AncSZ)	phosphorylation enrichment (EPHB2)	phosphorylation enrichment (MERTK)	phosphorylation enrichment (Hck)	SH2 binding enrichment (Grb2 SH2)	SH2 binding enrichment (c-Src SH2)	SH2 binding enrichment (SHP2-C SH2)
LAGRYYALRSM [CKB_Y174_K177R]	0.524	0.751	1.66	0.763	0.5	0.684	0.79	0.581	0.701	0.807	0.688	3.63	0.708	1.38	1.73	2.86
LDLPGYCPLRE [CCDC116_Y291]	0.96	0.916	1.64	1.36	1.09	1.28	1.97	0.773	1.09	1.55	0.668	0.767	1.1	0.754	0.611	0.736
LDYNEYFRDLN [HPRT1_Y198]	0.828	1.39	1.68	1.28	0.555	1.13	1.33	0.649	0.741	1.81	0.753	0.519	0.661	0.727	0.645	0.861
LEFNEYFRDLN [HPRT1_Y198_D194E_YF]	0.992	1.09	1.25	1.95	0.769	0.805	1.66	0.809	1.21	2.14	1.15	0.795	0.828	0.926	0.488	0.743
LEIETCRRLLD [KRT12_Y429_Y429C]	0.635	0.722	1.07	1.2	0.474	1.01	1.33	0.415	0.939	1.2	0.913	0.411	0.759	0.883	0.648	0.64
LEQDEYALHSH [HADHB_Y244_R247H]	0.887	0.847	1.2	0.805	0.642	1.1	1.24	0.665	0.882	1.45	0.669	0.578	0.598	0.744	0.452	0.561
LERYIYNRQEF [HLA-DPB1_Y59_E62Q]	0.819	0.624	0.449	0.605	0.772	0.415	1.01	1.24	0.475	1.05	0.856	0.413	1.32	0.812	0.477	0.703
LEVPLYKNGVK [CPS1_Y1069_A1065E]	0.759	0.944	0.643	1.11	0.66	0.693	0.997	0.321	0.715	1.28	0.43	0.625	0.655	0.845	0.472	0.491
LFEDRYLLGPS [ASS1_Y87_T91P_YF]	0.793	0.679	1.73	1.12	0.634	1.07	1.42	0.689	0.857	1.07	0.872	0.58	0.804	0.965	0.552	0.515
LFEDRYLLGTS [ASS1_Y87_YF]	1.29	1.26	0.885	2.45	1.12	0.41	1.8	0.258	2.81	2.21	1.98	0.863	1.12	0.918	0.529	0.537
LFIGQYSGKKE [L1CAM_Y1229_S1224L]	1.07	1.02	1.77	1.13	0.901	1.07	2.22	1.12	0.984	1.41	1.11	0.972	1.02	0.924	0.843	0.745
LFLACYCIGGG [UBD_Y161]	0.72	0.764	1.38	1.29	0.657	0.908	2.71	0.545	0.803	1.22	1.12	0.483	0.562	1.02	0.876	1.3
LFMGDYVGRGY [PPP2CA_Y86_D88G]	1.37	1.17	2.97	1.19	0.713	0.953	1.21	1.53	2.15	1.53	1.72	0.847	1.75	0.854	0.536	0.596
LFSLGYHQSLW [GANAB_Y396_R400L]	0.475	0.51	0.7	0.786	0.474	0.666	0.986	0.42	0.627	0.827	0.702	0.535	0.475	0.98	0.61	0.59
LGEGSYGKVKE [STK11_Y60]	0.939	1.21	1.58	0.783	0.574	1.12	1.5	0.863	1.29	1.75	0.868	0.887	0.862	0.669	0.571	0.52
LGIDRYHAIVF [NPSR1_Y147_S143G_YF]	0.732	1.55	2.47	1.37	1.04	1.31	1.82	1.11	1.22	2.59	1.41	1.52	0.942	0.851	1.28	0.689
LHNLFYQLEAE [PKP2_Y616_S615F]	8.59	1.02	2.4	1.07	1.66	2.03	2.87	10.4	1.35	2.35	1.9	1.6	2.2	1.02	0.725	0.909

Sequence	phosphorylation enrichment (Fyn)	phosphorylation enrichment (FGFR1)	phosphorylation enrichment (Jak2)	phosphorylation enrichment (FGFR3)	phosphorylation enrichment (Fer (mouse))	phosphorylation enrichment (c-Abl (mouse))	phosphorylation enrichment (Fes)	phosphorylation enrichment (c-Src)	phosphorylation enrichment (EPHB1)	phosphorylation enrichment (AncSZ)	phosphorylation enrichment (EPHB2)	phosphorylation enrichment (MERTK)	phosphorylation enrichment (Hck)	SH2 binding enrichment (Grb2 SH2)	SH2 binding enrichment (c-Src SH2)	SH2 binding enrichment (SHP2-C SH2)
LHSEAYLKYIE [PBRM1_Y1610]	0.831	0.633	1.55	0.743	0.665	0.9	0.994	0.941	0.753	1.16	1.2	0.678	0.684	0.664	0.443	0.445
LIEQAYDNPHE [PRPF8_Y871]	0.645	0.566	0.811	0.695	0.602	0.767	1.16	0.472	0.638	1.12	0.824	0.43	0.86	0.828	5.87	0.729
LKALHYMVQTS [SACS_Y3367]	0.362	0.39	0.653	0.459	0.428	0.533	0.858	0.398	0.546	0.808	0.512	0.385	0.43	0.77	0.721	0.794
LKETGYVVERP [BCLAF1_Y466]	0.434	0.443	0.553	0.609	0.321	0.469	0.807	0.411	0.494	0.768	0.278	0.438	0.399	0.862	0.501	0.68
LKGQVYILGLE [ASS1_Y359_R363L]	0.49	0.467	1.23	0.961	0.664	0.759	1.99	0.633	0.971	1.37	0.658	0.518	0.985	0.935	0.597	1.02
LKLKAYRFSIS [LCT_Y974_V971L]	0.746	0.845	2.76	1.21	1.26	2.51	1.96	1.55	0.883	1.76	0.948	1.15	0.882	0.673	0.502	0.763
LLILEYAKYGS [RET_Y806_V804L]	0.587	0.547	1.5	0.869	0.58	1.02	1.27	0.764	0.773	1.32	0.649	0.392	0.486	1.37	1.31	1.26
LLQEWYMIISR [HUWE1_Y4066_R4063Q]	0.766	1.04	3.08	2.45	0.821	1.81	2.39	1.25	2.11	2.05	0.921	1.1	1.1	1.08	0.623	1.09
LLREWYLPDPF [SIX3_Y225_Q227P_YF]	1.11	1.25	1.4	1.36	0.871	1.13	2.2	0.747	1.22	2.26	0.711	0.583	0.791	1.3	0.863	1.06
LLSISYVGCSL [ADGRD1_Y571_S567L]	0.98	1.1	1.77	1.43	1.01	1.45	2.03	0.69	0.888	1.48	0.823	0.761	0.824	0.96	0.54	0.571
LMVFEYMRHGD [NTRK1_Y591]	0.604	0.5	1	0.756	0.614	0.457	1.08	0.34	0.646	0.845	0.847	0.426	0.931	1.67	1.23	1.99
LNWIFYKDQTG [RS1_Y166_YF]	0.48	0.27	1.29	0.932	0.54	0.843	1.72	0.567	0.611	0.977	0.306	0.468	0.239	0.937	0.657	0.88
LPEENYQVLRF [ARHGAP1_Y365]	0.768	2.81	1.44	2.17	2.13	1.18	1.39	1.32	4.13	1.43	1.41	0.802	2.82	1.53	0.548	0.784
LQLLGYRPVYS [CHST6_Y358]	0.916	0.718	0.979	0.91	0.49	0.911	1.24	0.559	0.954	1.29	0.873	0.426	0.581	1.02	0.783	0.962
LREKVYVSLEA [RXRA_Y397_A398V]	1.36	0.837	0.723	0.737	0.44	0.542	0.794	1.36	0.456	0.64	0.501	0.568	0.61	0.774	1.06	0.94
LRRREYQRQDF [PRKRIP1_Y90_YF]	0.539	0.699	0.836	0.561	0.563	0.777	0.679	0.977	0.549	0.603	0.559	0.7	0.572	0.671	0.397	0.55
